# Patent US20170327577A1, “METHODS OF CONSTRUCTING AMINO TERMINAL IMMUNOGLOBULIN FUSION PROTEINS AND COMPOSITIONS THEREOF” (The California Institute for Biomedical Research, priority 2014, published 2017)
# What was measured:
# [1] = target: leptin receptor (UniProt P48357); test: cell-based or functional assay
# [2] = target: T1, relaxin receptor (LGR7) (UniProt Q9HBX9); test: cell-based or functional assay
# T1 sequence (looked up): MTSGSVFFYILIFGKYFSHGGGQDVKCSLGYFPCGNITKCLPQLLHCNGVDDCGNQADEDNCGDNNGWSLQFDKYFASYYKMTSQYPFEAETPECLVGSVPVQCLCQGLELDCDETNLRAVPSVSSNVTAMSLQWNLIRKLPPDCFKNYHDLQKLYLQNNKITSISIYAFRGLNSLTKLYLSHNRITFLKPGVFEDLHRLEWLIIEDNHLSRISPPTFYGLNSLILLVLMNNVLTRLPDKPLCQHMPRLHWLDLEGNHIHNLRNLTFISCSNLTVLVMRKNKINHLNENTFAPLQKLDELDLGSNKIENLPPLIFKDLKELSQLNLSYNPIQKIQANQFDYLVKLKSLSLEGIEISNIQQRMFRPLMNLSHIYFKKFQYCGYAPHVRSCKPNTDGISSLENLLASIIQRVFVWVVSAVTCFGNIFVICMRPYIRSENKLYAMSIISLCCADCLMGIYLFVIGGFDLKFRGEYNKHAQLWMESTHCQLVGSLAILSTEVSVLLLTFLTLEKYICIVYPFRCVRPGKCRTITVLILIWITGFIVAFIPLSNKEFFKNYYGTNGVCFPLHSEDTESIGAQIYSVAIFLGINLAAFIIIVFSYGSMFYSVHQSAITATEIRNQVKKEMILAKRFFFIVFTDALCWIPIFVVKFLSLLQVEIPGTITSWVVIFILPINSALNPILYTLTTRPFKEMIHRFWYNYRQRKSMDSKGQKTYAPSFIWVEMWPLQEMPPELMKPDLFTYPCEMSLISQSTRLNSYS
# [3] = target: relaxin receptor (LGR8) (Homo sapiens, UniProt Q8WXD0); test: cell-based or functional assay
# [4] = target: GLP-2 receptor (UniProt O95838); test: cell-based or functional assay
# [5] = target: T2, GLP-2 receptor (GLP-2R) (Homo sapiens, UniProt O95838); test: GLP-2 receptor activation, CRE-luciferase reporter assay in HEK293 cells; type: cell-based; conditions: Example 18; HEK293 GLP-2R CRE-Luc, 24 hours
# T2 sequence (O95838 1-553): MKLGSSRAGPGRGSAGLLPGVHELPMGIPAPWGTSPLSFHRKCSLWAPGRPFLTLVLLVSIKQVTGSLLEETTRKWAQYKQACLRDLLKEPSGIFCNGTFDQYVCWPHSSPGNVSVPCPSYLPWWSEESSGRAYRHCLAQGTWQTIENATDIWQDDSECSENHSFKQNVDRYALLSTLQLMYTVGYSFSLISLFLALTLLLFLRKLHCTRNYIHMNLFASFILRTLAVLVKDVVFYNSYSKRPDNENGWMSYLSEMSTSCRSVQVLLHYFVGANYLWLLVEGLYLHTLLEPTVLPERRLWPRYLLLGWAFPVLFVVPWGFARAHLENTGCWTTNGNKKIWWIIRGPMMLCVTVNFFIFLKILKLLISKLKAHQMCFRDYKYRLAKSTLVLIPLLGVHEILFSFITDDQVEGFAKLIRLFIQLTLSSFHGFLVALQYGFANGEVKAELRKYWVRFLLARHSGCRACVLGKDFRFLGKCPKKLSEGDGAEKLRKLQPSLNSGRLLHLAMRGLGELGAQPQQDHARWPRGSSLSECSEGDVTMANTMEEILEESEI
# Method: Luminescence intensities were then measured using One-Glo (Promega) luciferase reagent by following manufacturer's instruction. The EC50 values were determined by fitting data into a logistic sigmoidal function: y=A2+(A1-A2)/(1+(x/x0)p), where A1 is the initial value, A2 is the final value, x0 is the inflection point of the curve, and p is the power. Data was analyzed using GraphPad Prism 6 software.
# [6] = target: glucagon receptor (UniProt P47871); test: cell-based or functional assay
# [7] = target: GLP-1 receptor (UniProt P43220); test: cell-based or functional assay
# Chain of relaxin receptor (LGR8) (Q8WXD0 whole entry): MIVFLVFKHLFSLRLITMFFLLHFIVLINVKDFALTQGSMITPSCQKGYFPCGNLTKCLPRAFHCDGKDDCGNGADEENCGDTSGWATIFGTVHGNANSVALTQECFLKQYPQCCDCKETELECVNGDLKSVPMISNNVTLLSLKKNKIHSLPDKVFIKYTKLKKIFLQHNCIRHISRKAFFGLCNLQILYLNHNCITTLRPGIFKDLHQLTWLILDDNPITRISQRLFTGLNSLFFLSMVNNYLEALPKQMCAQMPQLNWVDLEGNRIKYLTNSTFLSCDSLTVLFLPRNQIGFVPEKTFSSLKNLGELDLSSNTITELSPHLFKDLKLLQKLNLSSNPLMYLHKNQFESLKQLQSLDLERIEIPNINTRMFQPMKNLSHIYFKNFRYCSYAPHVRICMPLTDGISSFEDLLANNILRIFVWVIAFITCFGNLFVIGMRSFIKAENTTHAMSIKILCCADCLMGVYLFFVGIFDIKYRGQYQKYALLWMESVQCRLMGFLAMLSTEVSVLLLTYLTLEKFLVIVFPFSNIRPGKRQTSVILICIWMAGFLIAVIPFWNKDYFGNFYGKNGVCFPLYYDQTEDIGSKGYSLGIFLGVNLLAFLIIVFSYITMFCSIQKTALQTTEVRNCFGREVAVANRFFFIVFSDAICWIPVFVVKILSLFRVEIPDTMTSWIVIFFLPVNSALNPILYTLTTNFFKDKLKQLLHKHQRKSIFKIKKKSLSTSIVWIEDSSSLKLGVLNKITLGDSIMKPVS
# Chain of palivizumab(NH, CEXGGGGS)-relaxin2(single) and palivizumab light chain (heavy): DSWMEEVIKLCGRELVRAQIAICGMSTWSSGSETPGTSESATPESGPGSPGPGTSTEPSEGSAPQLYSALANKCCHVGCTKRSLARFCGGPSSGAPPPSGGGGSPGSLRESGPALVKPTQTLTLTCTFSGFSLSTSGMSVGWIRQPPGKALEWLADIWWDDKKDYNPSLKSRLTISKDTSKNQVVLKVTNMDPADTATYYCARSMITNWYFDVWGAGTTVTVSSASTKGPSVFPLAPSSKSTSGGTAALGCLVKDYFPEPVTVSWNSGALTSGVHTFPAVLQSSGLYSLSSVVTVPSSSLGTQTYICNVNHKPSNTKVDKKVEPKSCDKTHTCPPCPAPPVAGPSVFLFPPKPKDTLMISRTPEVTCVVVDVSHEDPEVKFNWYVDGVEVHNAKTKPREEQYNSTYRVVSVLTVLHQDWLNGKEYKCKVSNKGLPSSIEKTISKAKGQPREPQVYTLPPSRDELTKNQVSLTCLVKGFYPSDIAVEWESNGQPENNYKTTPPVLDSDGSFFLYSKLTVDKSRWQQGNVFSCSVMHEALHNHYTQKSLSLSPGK
# Chain of palivizumab(NH, CEXGGGGS)-relaxin2(single) and palivizumab light chain (light): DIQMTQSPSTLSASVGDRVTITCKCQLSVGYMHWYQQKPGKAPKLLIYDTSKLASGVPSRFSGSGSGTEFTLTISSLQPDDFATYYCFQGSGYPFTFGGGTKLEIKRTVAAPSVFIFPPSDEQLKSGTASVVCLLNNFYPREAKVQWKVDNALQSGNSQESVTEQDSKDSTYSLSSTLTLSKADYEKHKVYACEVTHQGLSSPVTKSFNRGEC
# Chain of palivizumab(NH, CEXGGGGG)-relaxin2(30GS) and palivizumab light chain (heavy): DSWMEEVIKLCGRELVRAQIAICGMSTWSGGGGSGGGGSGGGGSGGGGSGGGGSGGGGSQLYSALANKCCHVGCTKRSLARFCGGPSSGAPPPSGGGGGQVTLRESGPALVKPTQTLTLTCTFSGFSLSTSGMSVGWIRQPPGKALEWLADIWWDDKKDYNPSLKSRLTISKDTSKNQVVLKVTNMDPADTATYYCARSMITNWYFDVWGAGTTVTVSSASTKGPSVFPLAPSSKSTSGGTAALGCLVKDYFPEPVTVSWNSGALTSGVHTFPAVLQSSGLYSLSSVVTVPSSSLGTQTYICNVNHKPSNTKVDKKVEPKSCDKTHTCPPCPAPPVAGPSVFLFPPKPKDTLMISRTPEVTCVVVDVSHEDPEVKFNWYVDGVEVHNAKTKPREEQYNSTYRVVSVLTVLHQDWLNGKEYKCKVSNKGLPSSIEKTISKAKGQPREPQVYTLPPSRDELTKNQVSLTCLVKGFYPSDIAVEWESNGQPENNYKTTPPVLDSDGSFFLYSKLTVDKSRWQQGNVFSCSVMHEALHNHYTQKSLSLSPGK
# Chain of palivizumab(NH, CEXGGGGG)-relaxin2(30GS) and palivizumab light chain (light): as the sequence (light) above
# Chain of palivizumab(NH, CEXGGGGS)-GLP2 and palivizumab(L) (heavy): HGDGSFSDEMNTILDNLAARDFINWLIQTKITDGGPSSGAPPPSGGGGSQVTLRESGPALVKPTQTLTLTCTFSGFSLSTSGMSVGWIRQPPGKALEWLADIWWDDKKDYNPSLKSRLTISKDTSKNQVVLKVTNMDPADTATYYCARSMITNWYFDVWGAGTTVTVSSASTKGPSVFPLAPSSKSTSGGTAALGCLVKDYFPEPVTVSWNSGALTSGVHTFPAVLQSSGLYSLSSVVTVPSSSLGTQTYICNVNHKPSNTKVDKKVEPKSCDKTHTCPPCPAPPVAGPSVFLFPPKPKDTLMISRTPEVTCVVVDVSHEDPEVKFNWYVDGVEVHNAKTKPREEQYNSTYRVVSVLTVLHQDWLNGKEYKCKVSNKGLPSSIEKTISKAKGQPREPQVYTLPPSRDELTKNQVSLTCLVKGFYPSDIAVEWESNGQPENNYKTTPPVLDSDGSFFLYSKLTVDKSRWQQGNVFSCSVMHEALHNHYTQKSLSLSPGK
# Chain of palivizumab(NH, CEXGGGGS)-GLP2 and palivizumab(L) (light): as the sequence (light) above
# Chain of palivizumab(NH, EAAAK)-GLP2 and palivizumab(L) (heavy): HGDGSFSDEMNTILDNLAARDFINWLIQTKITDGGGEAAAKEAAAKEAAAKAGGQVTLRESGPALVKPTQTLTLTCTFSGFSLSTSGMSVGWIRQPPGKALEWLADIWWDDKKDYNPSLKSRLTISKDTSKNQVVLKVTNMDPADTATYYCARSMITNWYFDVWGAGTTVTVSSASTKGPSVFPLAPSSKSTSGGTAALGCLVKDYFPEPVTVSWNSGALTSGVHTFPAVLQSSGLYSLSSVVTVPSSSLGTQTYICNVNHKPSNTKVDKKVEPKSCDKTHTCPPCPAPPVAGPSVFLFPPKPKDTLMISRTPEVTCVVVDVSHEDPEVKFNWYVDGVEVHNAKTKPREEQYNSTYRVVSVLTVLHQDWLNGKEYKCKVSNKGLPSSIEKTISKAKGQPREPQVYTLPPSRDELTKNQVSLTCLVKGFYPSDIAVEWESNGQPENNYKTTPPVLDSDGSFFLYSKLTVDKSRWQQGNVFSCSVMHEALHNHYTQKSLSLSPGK
# Chain of palivizumab(NH, EAAAK)-GLP2 and palivizumab(L) (light): as the sequence (light) above
# Chain of palivizumab (NH, GGGGS3)-relaxin2(9GS) and palivizumab light chain (heavy): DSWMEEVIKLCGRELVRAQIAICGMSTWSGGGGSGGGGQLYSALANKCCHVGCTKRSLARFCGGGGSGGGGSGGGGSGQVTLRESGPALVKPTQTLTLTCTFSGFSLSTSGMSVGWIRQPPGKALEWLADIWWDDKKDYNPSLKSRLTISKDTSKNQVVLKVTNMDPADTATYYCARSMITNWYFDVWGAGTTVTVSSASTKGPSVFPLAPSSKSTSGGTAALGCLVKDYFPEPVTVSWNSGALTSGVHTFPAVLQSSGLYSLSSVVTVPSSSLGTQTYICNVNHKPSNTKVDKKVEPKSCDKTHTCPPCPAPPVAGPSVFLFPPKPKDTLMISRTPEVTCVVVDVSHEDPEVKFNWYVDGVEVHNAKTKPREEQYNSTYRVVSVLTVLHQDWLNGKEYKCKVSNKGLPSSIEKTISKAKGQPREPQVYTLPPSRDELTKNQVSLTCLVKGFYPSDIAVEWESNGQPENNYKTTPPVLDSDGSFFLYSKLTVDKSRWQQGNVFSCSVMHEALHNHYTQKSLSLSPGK
# Chain of palivizumab (NH, GGGGS3)-relaxin2(9GS) and palivizumab light chain (light): as the sequence (light) above
substance,measurement,setting,value
leptin (from UniProt P41159 22-167) (ligand),"EC50, luciferase reporter (FIG. 6)",[1],55 pM
relaxin-2 (from UniProt P04090 25-185) (ligand),"EC50, CRE-luciferase reporter in HEK293 cells",[2],12.1 pM
same,"EC50, CRE-luciferase reporter in HEK293 cells (FIG. 13)",[2],12 pM
same,"EC50, CRE-luciferase reporter in HEK293 cells (FIG. 23)",[2],14 pM
same,"EC50, CRE-luciferase reporter in HEK293 cells (FIG. 13)",[3],11200 pM
same,"EC50, CRE-luciferase reporter in HEK293 cells (FIG. 23)",[3],11200 pM
"palivizumab(NH, EAAAK)-GLP2 and palivizumab(L)","EC50, CRE-luciferase reporter in HEK293 cells",[4],69 pM
"palivizumab(NH, CEXGGGGS)-GLP2 and palivizumab(L)","EC50, CRE-luciferase reporter in HEK293 cells",[4],133 pM
"palivizumab(NH, CEXGGGGS)-GLP2 (SEQ ID NO: 218) and palivizumab(L) (SEQ ID NO: 7)",EC50,[5],133 pM
"palivizumab fab(NH, GGGGS3)-relaxin2(9GS) and palivizumab light chain","EC50, CRE-luciferase reporter in HEK293 cells",[2],5800 pM
"palivizumab(NL, EAAAK)-glucagon(2G) and pPalivizumab(NH, GGGGS1)-exendin-4","EC50, CRE-luciferase reporter in HEK293 cells",[6],26 pM
same,"EC50, CRE-luciferase reporter in HEK293 cells",[7],9 pM
"palivizumab(NH, CEXGGGGG)-relaxin2(GGGPRR) and palivizumab light chain","EC50, CRE-luciferase reporter in HEK293 cells",[2],2000 pM
"palivizumab (NH, GGGGS3)-relaxin(18GS) and palivizumab light chain","EC50, CRE-luciferase reporter in HEK293 cells",[2],1300 pM
"palivizumab (NH, CEXGGGGG)-relaxin2(9GS) and palivizumab light chain","EC50, CRE-luciferase reporter in HEK293 cells",[2],480 pM
"palivizumab(NH, EAAAK)-relaxin2(GGGPRR) and palivizumab light chain","EC50, CRE-luciferase reporter in HEK293 cells",[2],3400 pM
"palivizumab fab(NH, CEXGGGGS)-relaxin2(single) and palivizumab light chain","EC50, CRE-luciferase reporter in HEK293 cells",[2],47300 pM
"palivizumab(NH, CEXGGGGS)-relaxin2(single) and palivizumab light chain","EC50, CRE-luciferase reporter in HEK293 cells",[2],2500 pM
same,"EC50, CRE-luciferase reporter in HEK293 cells (FIG. 13)",[2],2500 pM
same,"EC50, CRE-luciferase reporter in HEK293 cells (FIG. 13)",[3],553000 pM
"palivizumab (NH, GGGGS3)-relaxin2(9GS) and palivizumab light chain","EC50, CRE-luciferase reporter in HEK293 cells",[2],240 pM
trastuzumab(CDR3H) Leptin,"EC50, luciferase reporter (FIG. 6)",[1],44.8 pM
"palivizumab(NH, CEXGGGGG)-relaxin2(30GS) and palivizumab light chain","EC50, CRE-luciferase reporter in HEK293 cells",[2],208 pM
